Test results published in the DeepSol protein solubility set.

Experiment: soluble on expression in E. coli; label from the status in PepcDB or PDB records

Soluble on expression in E. coli, soluble:
MLSRKKTKNEVSKPAEVQGKYVKKETSPLLRNLMPSFIRHGPTIPRRTDLCLPDSSATAFSASGDGIVSRNQSFLRTAIQRTPHEVMRRESHRLSAPSYLVRSLADVPRECGSSQSFLTEVNFAVENGDSGSRYFFSDNFFDGQRRRPLGDRAQEDYRYYEYNHDLFQRMPQSQGRHTSGIGRVTATSLGNLTNHGSEDLPLPPGWSVDWTMRGRKYYIDHNTNTTHWSHPLEREGLPPGWERVESSEFGTYYVDHTNKRAQYRHPCAPSVPRYDQPPPITYQPQQTERNQSLLVPANPYHTAEIPDWLQVYARAPVKYDHILKWELFQLADLDTYQGMLKLLFMKELEQIVKLYEAYRQALLTELENRKQRQQWYAQQHGKTFLS, NCCVKGNSIYPQKTSTKQTGLMLDIARHFYSPEVIKSFIDTISLSGGNFLHLHFSDHENYAIESHLLNQRAENAVQGKDGIYINPYTGKPFLSYRQLDDIKAYAKAKGIELIPELDSPNHMTAIFKLVQKDRGVKYLQGLKSRQVDDEIDITNADSITFMQSLMSEVIDIFGDTSQHFHIGGDEFGYSVESNHEFITYANKLSYFLEKKGLKTRMWNDGLIKNTFEQINPNIEITYWSYDGDTQDKNEAAERRDMRVSLPELLAKGFTVLNYNSYYLYIVPKASPTFSQDAAFAAKDVIKNWDLGVWDGRNTKNRVQNTHEIAGAALSIWGEDAKALKDETIQKNTKSLLEAVIHKTNGDEHHHHHH, SAALTAEHFVALQSLLKASSKDVVRQLCQESFSSSCLDSESLLDKTCSSLSVPQGEAAQLLQALHHFTRLVAFRDLSSAEAILALFPENFHQNLKNLLTKIIVEHISTWRAEAQANQISLPRLVDLDWRVDIKTSSDNISRMAVPTCLLQMKIQEDPSLCGEKPSISAVTMELSKETLDTMLDGLGRIRDQLSAVANK, SEEEDDEVMVREGLMASQREIFSISGPIHLTSIDWNNSYHRTSVASCLVQAVYTLERDRQQNRIGLKSQANHWWEFFNFTLAETLIDDSDGSIYGAVFEYKHFFSYNYHHTPHSKPPPRHVIAFRGTILKPHSRSRDLKLDLRCIRDSLHDSTRFVHAIQVIQSAVAKTGNAAVWLAGHSLGAAVALLAGKIMTRSGFPLESYLFNPPFSSIPIEKLVKSEKLKHGVRFAGSLVKAGVAIAVKGRHHNKGQEDDSFMKLASWIPYLYLNPLDTICSEYIGYFKHRNKMFEIGAGKIERIATRNSLRSLLSGGGGGGSSSDSSSEPLHLLPSAYMTINASKSPNFKRAHGIHQWWDPMFNGEYVLHQFNN, MANCQIAILYQRFQRVVFGISQLLCFSALISELTNQKEVAAWTYHYSTKAYSWNISRKYCQNRYTDLVAIQNKNEIDYLNKVLPYYSSYYWIGIRKNNKTWTWVGTKKALTNEAENWADNEPNNKRNNEDCVEIYIKSPSAPGKWNDEHCLKKKHALCYTASCQDMSCSKQGECLETIGNYTCSCYPGFYGPECEYVRECGELELPQHVLMNCSHPLGNFSFNSQCSFHCTDGYQVNGPSKLECLASGIWTNKPPQCLAAQCPPLKIPERGNMTCLHSAKAFQHQSSCSFSCEEGFALVGPEVVQCTASGVWTAPAPVCKAVQCQHLEAPNEGTMDCVHPLTAFAYGSSCKFECQPGYRVRGLDMLRCIDSGHWSAPLPTCEAISCEPLESPVHGSMDCSPSLRAFQYDTNCSFRCAEGFMLRGADIVRCDNLGQWTAPAPVCQALQCQDLPVPNEARVNCSHPFGAFRYQSVCSFTCNEGLLLVGASVLQCLATGNWNSVPPECQAIPCTPLLSPQNGTMTCVQPLGSSSYKSTCQFICDEGYSLSGPERLDCTRSGRWTDSPPMCEAIKCPELFAPEQGSLDCSDTRGEFNVGSTCHFSCNNGFKLEGPNNVECTTSGRWSATPPTCKGIASLPTPGVQCPALTTPGQGTMYCRHHPGTFGFNTTCYFGCNAGFTLIGDSTLSCRPSGQWTAVTPACRAVKCSELHVNKPIAMNCSNLWGNFSYGSICSFHCLEGQLLNGSAQTACQENGHWSTTVPTCQDDGKCPLNPHSHLGTYGVFTNAAFDPSP, PKHGKRYRALLEKVDPNKIYTIDEAAHLVKELATAKFDETVEVHAKLGIDPRRSDQNVRGTVSLPHGLGKQVRVLAIAKGEKIKEAEEAGADYVGGEEIIQKILDGWMDFDAVVATPDVMGAVGSKLGRILGPRGLLPNPKAGTVGFNIGEIIREIKAGRIEFRNDKTGAIHAPVGKASFPPEKLADNIRAFIRALEAHKPEGAKGTFLRSVYVTTTMGPSVRINPHS, MTPDPLAPLDLAFWNIESAEHPMHLGALGVFEADSPTAGALAADLLAARAPAVPGLRMRIRDTWQPPMALRRPFAFGGATREPDPRFDPLDHVRLHAPATDFHARAGRLMERPLERGRPPWEAHVLPGADGGSFAVLFKFHHALADGLRALTLAAGVLDPMDLPAPRPRPEQPPRGLLPDVRALPDRLRGALSDAGRALDIGAAAALSTLDVRSSPALTAASSGTRRTAGVSVDLDDVHHVRKTTGGTVNDVLIAVVAGALRRWLDERGDGSEGVAPRALIPVSRRRPRSAHPQGNRLSGYLMRLPVGDPDPLARLGTVRAAMDRNKDAGPGRGAGAVALLADHVPALGHRLGGPLVSGAARLWFDLLVTSVPLPSLGLRLGGHPLTEVYPLAPLARGHSLAVAVSTYRGRVHYGLLADAKAVPDLDRLAVAVAEEVETLLTACRPLEHHHHHH, SNAMDKYPFLREAGSSFKDRDVTKMSDLIATWDGQDIKGPALIGVPLSKSSISHSGASFAPGTIRQALKHSSAYSAELGEHVVSELLYDLGDIDIHVTDIVKSHHHIFQTMHALLSDHPDWVPLILGGDNSISYSTIKAIAQTKGTTAVIQFDAHHDVRNTEDGGPTNGTPFRRLLDEEIIEGQHLIQLGIREFSNSQAYEAYAKKHNVNIHTMDMIREKGLIPTIKEILPVVQDKTDFIFISVDMDVLDQSHAPGCPAIGPGGLYTDELLEAVKYIAQQPNVAGIEIVEVDPTLDFRDMTSRAAAHVLLHALKGMKLSPFK

Soluble on expression in E. coli, not soluble:
MAHHHHHHMEISSISETDKNAITRLLSSDLSRTVARHAIIVLHYFRTISDEDLPIDVLLGGCVLYAVKQRQASNANYFLRECLERVKESDIVGFELLLVQVVRHNVLLIETCLRSVFHEVLLENPVAGLDRERTIKVCLHLISFLYRTSWCLFPESAARGAFLVASEKCEIKLGKLSSAFDGPMVKHIAKYLRDQFWN, MGSDKIHHHHHHMIYNDRLGEVMDLNTLIKIIEKVGRIEIEDIKITADELIINIPSAPPIVIPQTPSIKEKLAEEGIIEIKDVPELDWEPPVEKYPGYIREVQFGKPKSEGGRGKVVKIGGQRALYRFEEPQPNPPVVTFDIFDIPMPGLPKPIRQFFQDVMEDPCEWAKKCVKEFGADMITIHHISTDPKIKDKSPKEAAKLMEDLLQAVDVPFVIGGSGNPQKDPLVLEACAEVAEGDRCLLASANLELDYKKIVDAAMKYDHNVLAWSIMDPNMARDLNRKLVEAGLDPNRIVMDPTTCALGYGIEFSINAMVRLRLNGLKGDELVNMPMSSGTTNAIGAREAWMNNPEWGPREYRLPLWEITTGITMMMCGVDLFMMLNPISVKTLKEIGKTLTTKPGEVKLNTNNYEWIVSP, VPMDELNERIFKEVVMYLRQHIKNYDNILDALRSTFHSTNHVEKLFFGGKINMLNQPEFHDITRVRSLLSLIEKEQDVLKLVQSPHTGISIKIGKENDYEEMENCSLITASYSVDQKQIGSIAIIGPTRMNYSRVVSLLQHVTSDLSKALTSLYDE, MRREALKTAVLKIMIEKMELKNVTHLEETMRLNQDLYIDSVMMLQLIVYIEMDVKLCVPEDEVDPKAFLTVGSLLDFMEELEPLQEVNVNN, MYRTPAAIVADATVGIPLVRFVTEEMEMTPELVALYTSHRSVWELLEGELKSLGLNPKVVYGTDVYKTRKSLQEVRPRVVFGSTIERHASEGLPVAYVVEVVRMMRQFRMINREYFGYTGILNLLECVQNEWVMGWRSKELEHHHHHH, KYHHLTLTQRAGSAVPTSNKVLDVKGQYLESGLSAPLIAEMRKHLKAGNQVMLFLNRRGFSPALMCHECGWIAECKRCDAYYTFHQYSNEIRCHHCGSQQPVIHQCQGC, MGSDKIHHHHHHMSLSYKEMHQTLMEELRLYHYPVAVKFFFDDEELATFKEKAEFYVPVKPMTFCQWELAARMKGQTVLATREDLGCSNALVSFGWKDIDDNEIKSHMKYVRSIEQAEKFVRSKPRLDMGSVKAIAVGPLGDAIVAPSVVHFYCDNMQSYHLAVDYMAAMDQHPLRTNVTMNSSACGGTVFSFLEKTANMLPACSGSYNAGKTERGEINFMIPGEHIEATVERLLERKRNLGSSAITRPGDGFPGADVCKNCPLIIFKKEK, MAHHHHHHMNKMKSTKIENPKYKLMKLIGKGTFGKVYSAIDMSTQEAVAIKRSPKWRNKVSREVDLLKKMNGSTNIVKIKSVFYTTTKKGYRIQNIVFKYMTYSLGRYIRMKKQEKRENNQICIGIKDLHKNDFAHRDLKPDNILIDLDSSNIKIEICDLGSAKKVQRNIISIPYICSRWYRAPELLCGSMFYTTEVDLWSLGCIIFELINLCPLFPGKFKKDEYSEECSQIINLIEVIGSPQMSFFENIKDHTSKKNTLLIKELCELNIKPLCWDEILGNILEIENPNERLNIDAVLSNPYFSTLNK, MGSDKIHHHHHHMKKFIVEPEFWELFPETKIGIVLAKNIDNSMESSAEIKKNLDEANENAEQFLEAAVFSENPVVSVWRKAYQKFKTKKGARSSIENLLKRVDKGKAVGSINPLVDIYNSISLNYGLPAGGEDIDTFAGNLRLTKAVGGEHFLALGDDEADNALPGEICYLDDEGAVCRSWNWRDGQRTMLTEQTKNAFLIIESVDPERGEVLDAATQKLAELSEKYLGGTAQVLLVTKENPEISLD, MRTSNYLLSTLKETPNDAEVVSHQLMLRAGMIRKLASGLYTWLPTGLRVLRKVENIVRQEIDNAGAVETLMPVVQPFELWEETGRSEKMGPELLRFTDRHVRPFVLSPTAEEVITSLVRNEVSSYKQLPLNLYQIQTKFRDERRPRFGVMRAREFCMMDAYSFDIDKAGLEKSYQAMHDAYCKAFDRMGLEYRPVLADSGAIGGSGSQEFHVLADSGEDLIAFSTESDYAANIEKAEALAPAVERAEPTQEMTLVDTPNAKTIAELVEQHGLPIEKTVKTLFVKASDEIDAPIIALIVRGDHELNEVKAENLPQVASPLEMASEEEIRELIGAGPGSLGPVGLELPFIVDRSVAVMSDFGAGANIDGKHYFGINWGRDVELGQVEDLRNVVEGDPSPCGKGTLMLK, SLHLGEQIWIYQGKKKEWLLGQIPEVNSALVSLNSDNGAIEAIVGGFSFEQSRFNRATQSLVQVGSSIKPFIYAAAMNKGLSLSTTLSDTPITINKQGQKPWEPKNADKRYEGPLRLRVALGKSKNMVAIRALQMSGVDYVADYLSRFGFNPDQFMATEALALGAASFTPLEMARAYAVFDNGGYLIEPYIIDRILDNQGNELFKANPALACLECNHIDLAYQEPTYFDGVKIHDEDQLRAEIDEINANPAASNTQTEDDQEPEIATTIKPQAPSLMTESIKNDASMRYAPRVISGELAFLMRSALNSAIYGEPGQNWHGTSRAIAKAFKRKDIGGKTGTTNNSKVTWYAGFGANIVTTVYVGFDDNRRDLGKGEAGAKTAMPAWIKYMKVALADKK, MSDKDEGTERLVALLERLGVNRWAARSEADDAVVNARNLVPMFLLLREVWKHVVREGDTSWLQKDARLLAQEPEAGWSDMRRALASLQAKGATAQELTDVVKGKQVSLLYDVFETLCDDDPDLEAEFSGIGWGVFETDAVGRPGRRMDRLFAPVVTLDPTGRCMGPRE
